“Also recorded” adds a separate entry of the source. Where no end group is shown, it is not given here. The star is where a group is joined. Biotin = O=C1N[C@H]2[C@H](CS[C@H]2CCCCC(=O)*)N1
B1: PanC (DYWDTSWPLLLFGGGC) (peptide)
peptide: DYWDTSWPLLLFGGGC
modifications: also: radiolabeled with 99mTc, site not given here, unlabeled form also used
notes: also called peptide PanC
B2: synthetic epitope of Hsc71 (GIPPAPRGVPQIEVTF) (peptide)
peptide: Biotin-GIPPAPRGVPQIEVTF
notes: Amino acids 463-478 of Hsc71, synthesized with N-terminal biotin

What was measured:
[1] = biological target: T1, Hsp70 (Homo sapiens, UniProt P0DMV8); assay: Binding competition between epitope of Hsc71 and Hsp70 for 99m-Tc labeled PanC; conditions: various concentrations of epitope, constant 99m-Tc labeled PanC, 1 hour at room temperature
T1 construct: purchased BioVision, Mountain View, Calif

[2] = biological target: BSA (Bos taurus, UniProt P02769); assay: Binding competition control: 99m-Tc labeled PanC on BSA coated wells; conditions: various concentrations of epitope, constant 99m-Tc labeled PanC, 1 hour at room temperature
[3] = tested on: lung cancer (NCI-H460)
[4] = tested on: prostate cancer (DU-145)
[5] = tested on: CCD-1070Sk (fibroblasts); assay: Cell internalization of fluorescein labeled peptide (fluorescent microscopy); type: cell-based; conditions: fibroblasts CCD-1070Sk; 25 μM peptide, one hour at 37C
Experimental: (§1) […], DU-145, and CCD-1070Sk were grown in culture as detailed above. Cells were grown on coverslips in 6 well plates. A 25 μM solution of peptide […]-fluorescein (PanF; SEQ ID NO:12) was prepared in modified Eagle's medium. Cell culture media were replaced with 1.6 mL of peptide-containing medium, and the cells were incubated with peptide for one hour at 37C. Medium was removed and cells were washed three times with PBS. Two mL of 2% formaldehyde in PBS was added to each well, and plates were kept on ice for 15 minutes. Cells were washed with cold PBS three times and rinsed with distilled water. Coverslips were mounted with DAPI containing media and viewed with an Olympus BX51 fluorescent microscope and DP70 digital camera with excitation and emission wavelengths of 490 and 520 nm.

[6] = tested on: NCI-H460 (lung cancer); assay: as above; type: cell-based; conditions: 25 μM peptide, one hour at 37C
Experimental: as §1

[7] = tested on: DU-145 (prostate cancer); assay: as above; type: cell-based; conditions: prostate cancer DU-145; 25 μM peptide, one hour at 37C
Experimental: as §1

[8] = biological target: B2; assay: 99mTc-PanC (20 nM) with 100 uM biotinylated epitope and unlabeled PanC, Neutravidin bead pull-down, gamma counting
[9] = biological target: B1; assay: competition: epitope peptide at various concentrations against Hsp70-coated wells for 99mTc-PanC; competitor Hsp70
Experimental: A 96 well plate was prepared by coating each well with Hsp70 (BioVision, Mountain View, Calif.) or BSA (control) by adding 0.5 μg/well in 100 µL of PBS and incubating overnight at 4C. The next day, each well was washed 3× with PBS. […] At the end of incubation, each well was washed 3× with PBS.

Sequence of BSA (P02769 25-607): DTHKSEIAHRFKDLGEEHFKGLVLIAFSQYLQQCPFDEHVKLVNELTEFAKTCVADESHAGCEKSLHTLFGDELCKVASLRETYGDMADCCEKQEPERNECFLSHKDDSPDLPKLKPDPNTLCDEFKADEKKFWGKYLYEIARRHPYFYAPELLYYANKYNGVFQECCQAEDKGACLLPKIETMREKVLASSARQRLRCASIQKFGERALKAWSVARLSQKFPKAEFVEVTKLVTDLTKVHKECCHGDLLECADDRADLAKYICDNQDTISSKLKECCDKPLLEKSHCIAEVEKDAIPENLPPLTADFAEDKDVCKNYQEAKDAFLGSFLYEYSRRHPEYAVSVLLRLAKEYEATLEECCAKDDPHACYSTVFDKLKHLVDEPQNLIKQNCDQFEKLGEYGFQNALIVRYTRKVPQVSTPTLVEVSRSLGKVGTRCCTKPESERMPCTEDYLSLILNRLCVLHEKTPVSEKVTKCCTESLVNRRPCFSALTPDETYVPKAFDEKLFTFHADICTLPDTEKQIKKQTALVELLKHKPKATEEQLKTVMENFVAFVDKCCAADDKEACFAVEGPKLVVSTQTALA
T1 sequence (P0DMV8 whole entry): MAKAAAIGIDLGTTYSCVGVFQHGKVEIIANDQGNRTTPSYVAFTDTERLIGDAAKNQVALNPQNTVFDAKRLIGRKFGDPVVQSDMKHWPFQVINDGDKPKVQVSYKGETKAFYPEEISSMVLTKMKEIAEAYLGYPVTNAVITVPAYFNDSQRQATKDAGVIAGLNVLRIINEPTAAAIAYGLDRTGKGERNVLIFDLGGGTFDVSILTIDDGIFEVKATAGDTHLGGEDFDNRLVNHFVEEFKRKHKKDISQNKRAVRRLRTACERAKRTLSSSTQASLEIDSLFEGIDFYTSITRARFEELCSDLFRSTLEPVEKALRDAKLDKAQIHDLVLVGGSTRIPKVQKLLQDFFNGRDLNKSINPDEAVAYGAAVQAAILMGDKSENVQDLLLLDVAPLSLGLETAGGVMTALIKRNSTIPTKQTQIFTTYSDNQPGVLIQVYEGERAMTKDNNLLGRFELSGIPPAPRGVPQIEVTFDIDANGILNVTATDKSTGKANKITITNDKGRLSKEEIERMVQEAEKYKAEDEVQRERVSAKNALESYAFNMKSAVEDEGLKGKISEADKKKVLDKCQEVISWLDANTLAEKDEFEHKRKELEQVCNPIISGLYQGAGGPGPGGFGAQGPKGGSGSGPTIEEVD

GIPPAPRGVPQIEVTF (not fully specified (N-terminus)) [synthetic epitope of Hsc71, Conserved region, amino acids 463-478 of Hsc71]
suppression of PanC binding to Hsp70 by the epitope [1]: suppressed binding of PanC to Hsp70 in a concentration dependent manner
suppression of PanC binding to Hsp70 by the epitope ([1]; listed as Hsc71 epitope): interferes with PanC binding to Hsp70 in a concentration dependent manner
suppression of PanC binding to albumin (BSA control) by the epitope [2]: suppressed binding of PanC to albumin approximately equally at all concentrations
suppression of PanC binding to albumin (BSA control) by the epitope ([2]; listed as Hsc71 epitope): suppresses binding of PanC to BSA approximately equally at all concentrations

DYWDTSWPLLLFGGGS(KFAKFAK)3 [PanL]
cell death (percent cytotoxicity) [3]: dose dependent increase in cell death
cell death (percent cytotoxicity) [4]: dose dependent increase in cell death

DYWDTSWPLLLFGGGSK (SEQ ID NO:12; PanF) (Flourescein)-amide (DYWDTSWPLLLFGGGSK-NH2; also: fluorescein label, site not given here)
cellular uptake (internalization) by fluorescent microscopic visualization [5]: significant uptake wasn't seen; also recorded: but not fibroblasts
cellular uptake (internalization) by fluorescent microscopic visualization [6]: significant cellular uptake; also recorded: Significant internalization
cellular uptake (internalization) by fluorescent microscopic visualization [7]: significant cellular uptake; also recorded: Significant internalization

B1
labeled/unlabeled PanC ratio above which binding saturates [8]: > 0.1%

B2
binding result [9]: binds

Reference: patent publication US20100221183A1, “PEPTIDES FOR TREATING AND DIAGNOSING CANCERS AND METHODS FOR USING THE SAME” (priority 2006, published 2010)
